Patent US10189887B2, “Polypeptides and uses thereof for reducing CD95-mediated cell motility” (INSERM (INSTITUT NATIONAL DE LA SANTÉ ET DE LA RECHERCHE …, priority 2014, dated 2019)

Biological target: T1, CD95/PLCγ1 (Homo sapiens, UniProt P19174)
T1 construct: endogenous in cells; host or cells: CEM (human leukemic T-cell line)
T1 sequence (P19174 2-1290 limits assumed): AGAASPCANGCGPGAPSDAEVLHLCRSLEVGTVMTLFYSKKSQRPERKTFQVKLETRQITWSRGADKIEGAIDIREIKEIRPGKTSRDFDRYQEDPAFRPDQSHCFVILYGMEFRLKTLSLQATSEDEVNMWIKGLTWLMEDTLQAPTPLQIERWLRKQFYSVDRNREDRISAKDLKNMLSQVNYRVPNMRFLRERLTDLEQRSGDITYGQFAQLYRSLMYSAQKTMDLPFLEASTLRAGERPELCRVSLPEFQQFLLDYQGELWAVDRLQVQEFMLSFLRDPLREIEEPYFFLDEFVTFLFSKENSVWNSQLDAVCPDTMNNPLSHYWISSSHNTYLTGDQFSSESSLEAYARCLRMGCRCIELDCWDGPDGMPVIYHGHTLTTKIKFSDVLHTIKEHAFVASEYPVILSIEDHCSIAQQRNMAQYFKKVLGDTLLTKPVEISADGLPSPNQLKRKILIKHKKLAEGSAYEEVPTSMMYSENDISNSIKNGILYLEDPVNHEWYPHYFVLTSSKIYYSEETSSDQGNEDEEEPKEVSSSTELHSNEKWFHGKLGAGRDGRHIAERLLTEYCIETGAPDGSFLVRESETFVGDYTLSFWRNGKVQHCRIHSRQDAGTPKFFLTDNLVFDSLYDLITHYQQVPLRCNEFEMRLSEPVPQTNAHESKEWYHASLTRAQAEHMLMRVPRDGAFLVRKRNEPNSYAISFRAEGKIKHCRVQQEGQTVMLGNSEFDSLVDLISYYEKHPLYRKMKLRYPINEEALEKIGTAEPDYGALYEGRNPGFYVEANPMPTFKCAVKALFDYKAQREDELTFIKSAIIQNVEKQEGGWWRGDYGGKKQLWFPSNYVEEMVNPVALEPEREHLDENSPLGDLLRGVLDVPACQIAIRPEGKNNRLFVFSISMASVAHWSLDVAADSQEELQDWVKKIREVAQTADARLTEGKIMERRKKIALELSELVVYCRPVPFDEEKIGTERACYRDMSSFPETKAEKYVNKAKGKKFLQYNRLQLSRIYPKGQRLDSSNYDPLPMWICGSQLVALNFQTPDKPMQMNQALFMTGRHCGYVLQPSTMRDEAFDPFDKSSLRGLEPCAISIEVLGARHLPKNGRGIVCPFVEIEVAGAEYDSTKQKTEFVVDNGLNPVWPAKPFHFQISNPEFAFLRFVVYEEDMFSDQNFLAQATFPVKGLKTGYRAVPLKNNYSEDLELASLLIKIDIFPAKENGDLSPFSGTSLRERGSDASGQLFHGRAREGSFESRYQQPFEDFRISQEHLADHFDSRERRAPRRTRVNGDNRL
Assay: PLCγ1 recruitment to CD95 (immunoprecipitation and immunoblotting)
Type: cell-based
Description: T-cells (5×10^7 cells per condition) were stimulated with Ig-CD95L or cl-CD95L (100 ng/mL) for indicated times at 37° C. Cells were lysed, incubated with APO1.3 (1 ug/mL) for 15 min at 4° C. and CD95 was immunoprecipitated using A/G protein-coupled magnetic beads (Ademtech, Pessac, France) for 1 h. After extensive washing, the immune complex was resolved by SDS-PAGE and immunoblotting was performed with indicated antibodies.
Cells were lyzed for 30 minutes at 4° C. in lysis buffer (25 mM HEPES pH 7.4, 1% v/v Triton X-100, 150 mM NaCl, 2 mM EGTA supplemented with a mix of protease inhibitors (Sigma-Aldrich)). Protein concentration was determined by the bicinchoninic acid method (PIERCE, Rockford, Ill., USA) according to the manufacturer's protocol. Proteins were separated on a 12% SDS-PAGE and transferred to a nitrocellulose membrane (GE Healthcare, Buckinghamshire, England). The membrane was blocked 15 minutes with TBST (50 mM Tris, 160 mM NaCl, 0.05% v/v Tween 20, pH 7.8) containing 5% w/v dried skimmed milk (TBSTM). Primary antibody was incubated overnight at 4° C. in TBSTM. The membrane was intensively washed (TBST) and then the peroxydase-labeled anti-rabbit or anti-mouse (SouthernBiotech, Birmingham, Ala., US) was added for 45 minutes. The proteins were visualized with the enhanced chemiluminescence substrate kit (ECL, GE Healthcare).

TAT-CID: cell penetrating peptide linking the 36-amino acid-stretch of CID (CD95 residues 175 to 210) to the HIV-TAT sequence; SEQ ID NO: 6 (RKKRRQRRRKRKEVQKTCRKHRKENQGSHESPTLNPETVAINLSD; TAT-CID)
PLCγ1 recruitment to CD95 (T cell lines Jurkat and CEM pre-incubated 1 h with 10 μM, cl-CD95L 100 ng/mL): impaired PLCγ1 recruitment
PLCγ1 binding to CD95 (activated T lymphocytes from healthy subjects, pre-incubation): inhibited the PLCγ1 binding to CD95
